Publication PMC2562019
Where two headings read alike, the source gives them in different places. Each block holds one substance with its values, some of them ahead of it.

Key:
[1] = target: Recombinant HGF receptor (c-met)/fc chimera (UniProt P08581); assay: SPR; Biacore 2000, 25°C; c-Met/Fc chimera amine-coupled (EDC/NHS) to a CM5 chip (22113 or 22377 RU); reconstituted rHGF injected at the stated concentrations; response read after the end of the injection (dissociation phase)
[2] = target: Recombinant HGF receptor (c-met)/fc chimera (UniProt P08581); assay: SPR; Biacore 2000, 25°C; c-Met/Fc chimera amine-coupled to a CM5 chip; medium conditioned by a healthy donor's blood (endogenous HGF, positive control) injected
[3] = target: Recombinant HGF receptor (c-met)/fc chimera (UniProt P08581); assay: SPR; Biacore 2000, 25°C; c-Met/Fc chimera amine-coupled to a CM5 chip; supernatant of buffy coat (before or after haemolysis by freezing) or serum of one donor, diluted 1:20 in PBS pH 7.4
[4] = target: Recombinant HGF receptor (c-met)/fc chimera (UniProt P08581); assay: SPR; Biacore 2000, 25°C; c-Met/Fc chimera amine-coupled to a CM5 chip; medium conditioned by a healthy donor's blood (endogenous HGF, positive control) injected; remark: listed apart in the source

UniProt P08581, sequence (P08581 25-932, change not shown): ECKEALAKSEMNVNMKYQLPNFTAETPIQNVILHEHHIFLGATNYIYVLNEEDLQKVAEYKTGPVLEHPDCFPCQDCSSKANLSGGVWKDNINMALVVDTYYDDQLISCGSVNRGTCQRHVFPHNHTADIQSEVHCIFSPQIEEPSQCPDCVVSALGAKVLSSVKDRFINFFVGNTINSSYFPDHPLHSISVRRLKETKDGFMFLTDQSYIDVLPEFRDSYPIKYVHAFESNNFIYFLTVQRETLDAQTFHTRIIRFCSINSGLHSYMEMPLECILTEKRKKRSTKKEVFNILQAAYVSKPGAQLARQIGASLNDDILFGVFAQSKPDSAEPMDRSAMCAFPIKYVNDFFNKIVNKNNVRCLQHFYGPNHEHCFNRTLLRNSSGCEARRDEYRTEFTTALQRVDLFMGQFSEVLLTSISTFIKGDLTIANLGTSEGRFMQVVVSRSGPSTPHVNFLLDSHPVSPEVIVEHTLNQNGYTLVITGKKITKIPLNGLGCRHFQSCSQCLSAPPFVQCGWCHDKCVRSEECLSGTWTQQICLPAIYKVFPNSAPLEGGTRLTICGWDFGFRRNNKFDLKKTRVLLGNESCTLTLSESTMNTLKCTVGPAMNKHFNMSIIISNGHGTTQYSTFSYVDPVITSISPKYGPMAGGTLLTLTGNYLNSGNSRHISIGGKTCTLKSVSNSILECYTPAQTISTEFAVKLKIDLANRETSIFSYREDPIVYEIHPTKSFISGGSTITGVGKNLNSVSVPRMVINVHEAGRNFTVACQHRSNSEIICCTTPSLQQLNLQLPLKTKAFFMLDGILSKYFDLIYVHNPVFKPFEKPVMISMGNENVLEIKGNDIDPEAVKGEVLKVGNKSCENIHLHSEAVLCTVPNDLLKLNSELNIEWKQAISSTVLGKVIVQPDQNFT

SPR response at 0.8 μg/ml [1]: 120 RU | SPR response at 4 μg/ml [1]: 201 RU | SPR response at 5 μg/ml [1]: 265 RU
Substance: Recombinant human hepatocyte growth factor, lot GJ175031 (from UniProt P14210 32-728) (ligand)

SPR response [2]: 403 RU | SPR response [4]: 209 RU
Substance: Endogenous HGF from human blood (ligand)
SPR response, buffy coat supernatant 1:20 [3]: 247 RU | SPR response, haemolysed buffy coat 1:20 [3]: 163 RU | SPR response, serum 1:20 [3]: 317 RU

SPR response at 2.5 μg/ml after 15 h at room temperature [1]: 181 RU | SPR response at 2.5 μg/ml after 15 h at −20°C and thawing [1]: 94 RU | SPR response at 2.5 μg/ml, freshly reconstituted [1]: 194 RU
Substance: Recombinant HGF, R&D carrier-free, lot GJ174034 (from UniProt P14210 32-728) (ligand)
